32 sequences from the supplement of paper PMC9170038 can be followed below.

The test system of this data set is MS2 coat protein. In words: apparent KD of MS2 coat protein; designed switch direction (-1 OFF switch, 1 ON switch): -1; higher = weaker reporter binding. Put shortly: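 An oligonucleotide input, 200 uM small-molecule ligand, or no input was present during titration of SNAP-549-labelled MS2 coat protein, which was doubled from 0.7 or 1.5 nM to 3 µM. Designed RNA switches had been transcribed on Illumina chips by stalled E. coli RNA polymerase. Apparent KD per design is the median over clusters of curves fitted to normalised cluster fluorescence.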

The mark [1] stands for this setting: Eterna round: R95, input ligand: microRNA oligo, concentration not stated.
Where [2] appears, read: input ligand: microRNA oligo, concentration not stated.

Turning to “CCUCUGUUAGGAUAUCAAACACUAUCUGCUCCAGAGUUAAGUGAGAAGGGACAUGAGGAUCACCCAUGUAAAAU [Isreusraar] (puzzle: Exclusion 4)”, under setting [1], the “apparent KD of MS2 coat protein” value was determined as 26.2 nM. The same measure, in the same setting: with “CCUGCACAUGAGGAUCACCCAUGUCAGGAUAUCUCGCCGUCGGCUUGCCGACGGUAUUAGAGAAGGGACAAGGG [JL Tixe mod 2] (puzzle: Exclusion 1)” the figure was 21.9 nM. On to “CCUGUGUGAGGAUAUGGUGUUGGCCAAAAGGAAUAGCUCCUCCAGAAGGCACAUGAGGAUCACCCAUGUCGUGG [Jolly's Folly 23 - Jieux - Exclusion 4] (Eterna round: R96, puzzle: Exclusion 4)”, for which the “apparent KD of MS2 coat protein” value worked out at 138 nM (input ligand: FMN 200 uM), 50.3 nM under setting [2] and 60.2 nM (input ligand: none). In the case of “CCUUUGUCAGGAUAUCAGAACACGCCCGUAGGGAGUGCAAAUGAGAAGGGACAUGAGGAUCACCCAUGUACAGA [Leonveti] (puzzle: Exclusion 4)”, the “apparent KD of MS2 coat protein” value under setting [1] came to 29.4 nM. For “CGAAAGGUAGGAUAUACGAAGAAAAAGGGUAGAAGAAGAACACAUGAGGAUCACCCAUGUAGAAGGACCAAAGC [Mat - Exclusion 2 - Mod of my Tesla design - D16] (puzzle: Exclusion 2)”, the “apparent KD of MS2 coat protein” value reads like this: (Eterna round: R95, input ligand: FMN 200 uM) 65.1 nM; under setting [1], 22.1 nM; (Eterna round: R95, input ligand: none) 20.5 nM.

Turning to “CGAACCCGAGGAUAUCGUAAACCCGACAUGAGGAUCACCCAUGUCAUCCUCACGGCGCCACGAGAAGGCGGUGUUU [Leinat] (puzzle: Exclusion 5)”, the “apparent KD of MS2 coat protein” value under setting [1] is 43.7 nM. “CGAAGUACGUAAGGAUAUACCGUGAGGACAACGGUAGAAGGUACAACAACAUGAGGAUCACCCAUGUGGACCUCUCGGCGUUGU [Eternabot solution 19] (Eterna round: R96, puzzle: Exclusion NG 1)”: the “apparent KD of MS2 coat protein” value under setting [2] was 309 nM.

On to “CGAAUUAUAGGAUAUACAUGAGGAUCACCCAUGUAACCGUGACUGGGAUGCGUCUCAAGUAGAAGGAUAGGCGC [Eternabot (L1) Solution 9] (Eterna round: R97, puzzle: Exclusion 3)”, for which the “apparent KD of MS2 coat protein” value (input ligand: FMN 200 uM) came to 27.2 nM and the “apparent KD of MS2 coat protein” value (input ligand: none) is 14.3 nM. With “CGACGUAAAGGAUAUACAUGAGGAUCACCCAUGUCCCUACAAUGAGUAGGUACACGCAGUAGAAGGUUACUUCG [Eternabot (Original) Solution 15] (Eterna round: R97, puzzle: Exclusion 3)”, the “apparent KD of MS2 coat protein” value reads like this: (input ligand: FMN 200 uM) 107 nM; (input ligand: none) 37 nM. Take “CGACUGUGAGGAUAUGGUGAGUAGUGCCUGAGCGCUGCUCACCAGAAGGCACAUGAGGAUCACCCAUGUAUAGC [Mat - Exclusion 4 - Mod of JL - D9] (puzzle: Exclusion 4)”: the “apparent KD of MS2 coat protein” value under setting [1] amounted to 31.7 nM. Regarding “CGAGCUUUUUGCUCGUCUUACAUGAGGAUCACCCAUGUCAAACAAACAAACAAACGAAAGUUUGUUUGUUUGUUUGA [Mod of sellena 2] (Eterna round: R97, puzzle: Sensor, turn-off variant 1)”, the “apparent KD of MS2 coat protein” value came out at 29.4 nM (input ligand: FMN 200 uM) and 30 nM (input ligand: none). Consider “CGAUAAAAGUGAGGAUAUGAGGAGAGAGAGAGAUCAGAAGGCACACAUGAGGAUCACCCAUGUGAGUUCUCGAAAUUAAAUAUU [Prohibition 49 - Jieux - Exclusion NG 1] (Eterna round: R96, puzzle: Exclusion NG 1)”, for which the “apparent KD of MS2 coat protein” value (input ligand: FMN 200 uM) turned out to be 15.2 nM, the “apparent KD of MS2 coat protein” value under setting [2] amounted to 11.4 nM and the “apparent KD of MS2 coat protein” value (input ligand: none) stood at 18 nM. On to “CGAUAAAGCUGAGGAUAUGAGAAUAGAAAGAAAUCAGAAGGCAGACAUGAGGAUCACCCAUGUGAGUUCUCGAGAUUAGAUAUU [Prohibition 47 - Jieux - Exclusion NG 1] (Eterna round: R96, puzzle: Exclusion NG 1)”, for which the “apparent KD of MS2 coat protein” value under setting [2] stood at 22.2 nM. For the sequence “CGAUAUAACGUAGGAUAUCUGAGAAAUAGAUGAAGAGAAGGACGACAUGAGGAUCACCCAUGUGAUCUAUCAAUAUUAUACAUG [Prohibition 96 - Jieux - Exclusion NG 1] (Eterna round: R96, puzzle: Exclusion NG 1)”, the “apparent KD of MS2 coat protein” value by setting is: (input ligand: FMN 200 uM) 722 nM; under setting [2], 694 nM; (input ligand: none) 604 nM.

For the sequence “CGAUAUAAGUCAGGAUAUGAGCGCAACUGACGAUCAGAAGGGACACAUGAGGAUCACCCAUGUGAUUUAUCAAUAUUAUACAUC [Prohibition 91 - Jieux - Exclusion NG 1] (Eterna round: R96, puzzle: Exclusion NG 1)”, the “apparent KD of MS2 coat protein” value (input ligand: FMN 200 uM) was determined as 36.5 nM, the “apparent KD of MS2 coat protein” value under setting [2] stood at 27.3 nM and the “apparent KD of MS2 coat protein” value (input ligand: none) came out at 31.6 nM. As for “CGAUCGGAAGGAUAUACACCUCACGUCAAACGGACAACCGGACAUGAGGAUCACCCAUGUAGAAGGUCCAAAAU [Tetixeve] (puzzle: Exclusion 2)”, the “apparent KD of MS2 coat protein” value under setting [1] is 55.7 nM. For “CGAUGAGGAGUGAGGAUAUCGUGUUCGAAAGAACGUGAGAAGGCACAUGAGGAUCACCCAUGUGAUCCUUGUCG [Omei Ex4B A9] (Eterna round: R97, puzzle: Brourd's mod of Exclusion 4)”, the “apparent KD of MS2 coat protein” value (input ligand: FMN 200 uM) is 57.2 nM and the “apparent KD of MS2 coat protein” value (input ligand: none) turned out to be 30.4 nM.

In the case of “CGAUGAGGAGUGAGGAUAUCGUGUUCGAAAGAACGUGAGAAGGCACAUGAGGAUCACCCAUGUGAUUCUUAUCG [Omei Ex4B A19] (Eterna round: R97, puzzle: Brourd's mod of Exclusion 4)”, the “apparent KD of MS2 coat protein” value reads like this: (input ligand: FMN 200 uM) 77 nM; (input ligand: none) 25.5 nM.

For “CGAUGCUCGUGUCCACAUGAGGAUCACCCAUGUCGAGUUAGCGAGGAUAUCGGUAGCACAUAGCACGAGAAGGCGCGAACCUGA [Ex NG3 #28] (Eterna round: R96, puzzle: Exclusion NG 3)”, the “apparent KD of MS2 coat protein” value was 58.4 nM (input ligand: FMN 200 uM), 15.9 nM under setting [2] and 22 nM (input ligand: none). Take “CGCAUACUAGGAUAUACAUGAGGAUCACCCAUGUCGCCGGGCCCACUCAUACUAAAACGUAGAAGGAGUUUGCC [Enlalari] (puzzle: Exclusion 3)”: the “apparent KD of MS2 coat protein” value under setting [1] came out at 16.5 nM. With “CGCAUGUAAGGAUAUUAGUAGUAGUCAGAAUAGACUAUUACUGAGAAGGUACAUGAGGAUCACCCAUGUCAGCG [Eli x4 4.17] (Eterna round: R97, puzzle: Exclusion 4)”, the “apparent KD of MS2 coat protein” value (input ligand: FMN 200 uM) worked out at 361 nM and the “apparent KD of MS2 coat protein” value (input ligand: none) amounted to 56.4 nM. The corresponding values for “CGCCAUCGAGUGAGGAUAUCAGGUAAAGGUGUACAUGAGAAGGCACUUGAGGAUCACCCAAGUAUUAAAGAAAA [Mareat] (Eterna round: R97, puzzle: Brourd's mod of Exclusion 4)” are 356 nM and 48.3 nM. The matching figures for “CGCUACGAAGUCAGGAUAUCAGAACAAGAUAAAUAUGAGAAGGGACAUGAGGAUCACCCAUGUUCGGUGGUAGC [BmEX4 A.14] (Eterna round: R97, puzzle: Brourd's mod of Exclusion 4)”: 24.6 nM and 21.1 nM. On to “CGCUAGUCAGGAUAUACGAACAUGUCAAAAGACGUGAAGGGACAUGAGGAUCACCCAUGUAGAAGGGACUAGCU [salish99_ex2_r3_013] (puzzle: Exclusion 2)”, for which the “apparent KD of MS2 coat protein” value under setting [1] worked out at 24.7 nM.

Consider “CGCUGGACAGGAUAUGUUCUUGGGCACUUGAGGAUCACCCAAGUCAUCAAGAACUCAGGCACAGAAGGGUUUAUGG [salish99_ex5_r4_018] (Eterna round: R97, puzzle: Exclusion 5)”, for which the “apparent KD of MS2 coat protein” value was determined as 41.5 nM (input ligand: FMN 200 uM) and 18.9 nM (input ligand: none). The corresponding values for “CGCUGGGCAGGAUAUGUUCUUGAGCACUUGAGGAUCACCCAAGUCAUCAAGAACUCAGGCACAGAAGGGUUUAUGG [salish99_ex5_r4_017] (Eterna round: R97, puzzle: Exclusion 5)” are 10.5 nM and 13.4 nM. The matching figures for “CGCUGGUGAGGAUAUGGGUGUGGUUACAUGAGGAUCACCCAUGUGGAGUCGCAUGUGGGUCCAGAAGGCGCGGGUG [-25.2, -23.4 kcal, 18% A] (Eterna round: R97, puzzle: Exclusion 5)”: 158 nM and 215 nM. In the case of “CGGACCCGAGGAUAUCGUAAACCCGACAUGAGGAUCACCCAUGUCAUCCUCACGGCGCCACGAGAAGGCGGUGUUA [Ansolaedra] (puzzle: Exclusion 5)”, the “apparent KD of MS2 coat protein” value under setting [1] is 21.8 nM.

In the case of “CGGAGACAUGAGGAUCACCCAUGUGAGGAUAUGGCGUGCGCUACUAAAGGUGGUUGCUCCAGAAGGCGCGGUGU [Eternabot (L1) Solution 3] (Eterna round: R97, puzzle: Exclusion 1)”, the “apparent KD of MS2 coat protein” value came to 74.5 nM (input ligand: FMN 200 uM) and 65.2 nM (input ligand: none). Consider “CGGCGCCUAGGAUAUACUCUGAGAAUCAGUUGGGUCUCCGGACAUGAGGAUCACCCAUGUAGAAGGAGGAAGCU [EX2 C.11] (Eterna round: R97, puzzle: Exclusion 2)”, for which the “apparent KD of MS2 coat protein” value was 21.3 nM (input ligand: FMN 200 uM) and 18.4 nM (input ligand: none). The matching figures for “CGGCGGGCAGGAUAUGGUAAUAAUUACAUGAGGAUCACCCAUGUAGAUAUAUGGGAAUAACCAGAAGGGCUUGUUG [-20.5, -20.3 kcal, A 32%] (Eterna round: R97, puzzle: Exclusion 5)”: 19.7 nM and 28.7 nM. Turning to “CGGCUACGAUGAGGAUAUACGCACAUGAGGAUCACCCAUGUAAAUCACGGGUAAAGAUCGCCAUCGUAGAAGGCAUAAGGGCCC [Orsole] (Eterna round: R96, puzzle: Exclusion NG 2)”, the “apparent KD of MS2 coat protein” value by setting is: (input ligand: FMN 200 uM) 80.3 nM; under setting [2], 49.6 nM; (input ligand: none) 80.2 nM.
